This passage reports Kd and Ratio of KD huOKT8.v1/KD variant for binding to huCD8 results from patent US20200172620A1.

As usually defined, the Kd is a measure of binding affinity in units of concentration.

The target in test [1] is human CD8 on cells (FACS) (human) (UniProt P01732). The test is described as follows: FACS. A general note: In flow cytometry, cells or beads pass a laser one at a time.
The target in test [2] is human CD8 (as used in SPR) (human) (UniProt P01732). The test is described as follows: SPR. A general note: SPR reads the build-up and loss of mass on a sensor chip optically.
Sequence of human CD8 (as used in SPR) (human) (P01732 22-182): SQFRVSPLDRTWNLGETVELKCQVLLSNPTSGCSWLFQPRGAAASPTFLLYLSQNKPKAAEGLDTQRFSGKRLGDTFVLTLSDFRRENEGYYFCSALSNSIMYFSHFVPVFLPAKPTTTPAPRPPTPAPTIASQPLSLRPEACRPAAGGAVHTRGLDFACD

Sequence of human CD8 on cells (FACS) (human) (P01732 22-235): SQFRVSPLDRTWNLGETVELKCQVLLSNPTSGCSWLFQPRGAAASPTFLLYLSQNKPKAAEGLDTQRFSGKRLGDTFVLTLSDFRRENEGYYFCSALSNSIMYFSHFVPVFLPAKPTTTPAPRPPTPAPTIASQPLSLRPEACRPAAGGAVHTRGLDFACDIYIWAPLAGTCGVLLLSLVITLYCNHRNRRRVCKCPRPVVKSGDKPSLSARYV

B1: OKT8 (antibody, from another filing, V domains shown)
VH: EVQLQQSGAELVKPGASVKLSCTASGFNIKDTYIHFVRQRPEQGLEWIGRIDPANDNTLYASKFQGKATITADTSSNTAYMHLCSLTSGDTAVYYCGRGYGYYVFDHWGQGTTLTVSS
VL: DVQINQSPSFLAASPGETITINCRTSRSISQYLAWYQEKPGKTNKLLIYSGSTLQSGIPSRFSGSGSGTDFTLTISGLEPEDFAMYYCQQHNENPLTFGAGTKLELK
On to B1, for which the figures for the Kd in test [1] and in test [2] were 20 nM and 13 nM, respectively. Moreover, the Ratio of KD huOKT8.v1/KD variant for binding to huCD8 in test [2] was determined as 1 X.
